According to patent US20110065645A1, “Compositions and Methods for Modulating Neuron Degeneration and Neuron Guidance” (The Regents of the University of California, priority 2009, published 2011):

How the values were obtained:
Fzd3 = molecular target: T1, Fzd3 (Mus musculus, UniProt Q61086); test: Surface biotinylation and avidin immunoprecipitation of Fzd3 in HEK293T cells; assay type: cell-based
T1 construct: expressed in transfected cells; host or cells: HEK293T
T1 sequence (Q61086 23-666): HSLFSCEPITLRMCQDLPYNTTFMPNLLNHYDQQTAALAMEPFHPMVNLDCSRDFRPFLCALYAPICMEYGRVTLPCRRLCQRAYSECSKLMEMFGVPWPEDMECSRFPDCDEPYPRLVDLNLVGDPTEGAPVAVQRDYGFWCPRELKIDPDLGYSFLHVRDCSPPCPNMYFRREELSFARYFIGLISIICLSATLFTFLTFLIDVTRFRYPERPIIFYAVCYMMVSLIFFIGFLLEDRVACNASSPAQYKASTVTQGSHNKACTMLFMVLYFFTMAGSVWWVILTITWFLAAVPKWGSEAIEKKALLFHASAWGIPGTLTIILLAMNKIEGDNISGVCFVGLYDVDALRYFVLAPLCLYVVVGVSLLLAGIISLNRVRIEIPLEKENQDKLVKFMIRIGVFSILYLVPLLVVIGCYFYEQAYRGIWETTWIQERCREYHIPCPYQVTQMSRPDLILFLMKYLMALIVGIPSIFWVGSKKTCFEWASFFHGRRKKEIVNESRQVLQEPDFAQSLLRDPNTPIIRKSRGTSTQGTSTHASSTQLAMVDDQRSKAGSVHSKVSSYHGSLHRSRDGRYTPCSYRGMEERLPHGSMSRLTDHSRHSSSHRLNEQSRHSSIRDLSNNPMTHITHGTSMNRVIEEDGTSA
Text: Dvl and Vgl have antagonistic functions on Fzd3 phosphorylation. […] We transfected Fzd3-mCherry in HEK293T cells then surface biotinylated and immunoprecipitated (IP) the surface molecules with strepavidin-conjugated beads to obtain membrane-localized proteins. […] We tested whether these two Fzd3 bands represent phosphorylation states of the Frizzled3 protein, one being phosphorylated/hyperphosphorylated Fzd3 (p-Fzd3) and the other non-phosphorylated Fzd3. […] Phosphorylation of Fzds has been shown previously in Xenopus oocytes
It has been proposed that Frizzled internalization is necessary for PCP signaling and phenotypes (Gagliardi et al., 2008; Yu et al., 2007). However, it has never been directly tested whether the cell surface level of Fzd, the Wnt-PCP receptor, changes upon Wnt addition. By using our surface biotinylation and immunoprecipitation with avidin, we show here, 15 minutes after Wnt addition, cell surface level of Fzd3-EGFP is diminished (FIG. 18C, Avidin IP, lane 3 anti-EGFP IB). […] This Fzd3 receptor oscillation from and to the membrane appeared to be a Wnt-Fzd specific effect because a non-Wnt binding receptor, such as the Insulin receptor stayed the same throughout the Wnt stimulation (FIG. 18C, Avidin IP, anti-Insulin Rβ IB). The Wnt-dependent Fzd3 oscillation is quantified in FIG. 18D (cross symboled line). […] In addition, PCP components appeared to effect this Wnt dependent oscillation of Fzd3 to and from the membrane. When Dvl1 is over expressed with Fzd3, we found within 30 minutes Fzd3 is unable to be internalized (FIG. 25B, lanes 5-7 and line). However, upon the introduction of Vangl2 into the transfection mix, Fzd3 oscillation is resumed (FIG. 25B, lanes 8-10 and circle symboled line).
Surface biotinylation and immunopreciptiation. 30 hours after transfection with the indicated constructs into HEK293T cells (FuGene, Roche), followed by 8-hour incubation in Optimem and subsequent bath application of recombinant Wnt5a (R&D Systems), surface proteins were subsequently labeled on ice with 1 mg/ml of Sulfo-NHS-LC-Biotin reagent (Pierce). The cell lysates were collect over a period of 30 minutes on ice in the following lysis buffer: 20 mM Tris pH7.6, 150 mM NaCl, 1% Triton, 0.1% SDS, 2.5 mM EDTA, 2.5 mM EGTA, protease Inhibitors (Roche). For the membrane immunoprecipitation, 600 ug of protein extracts were incubated overnight and retrieved by NeutrAvidin-coated Agarose beads (Pierce), the bound fraction was boiled and loaded on SDS-PAGE gel and analyzed by western blot analysis. To visualize the input amount 20 ug of total lysate was loaded, and for the Avidin IPs the total amount was loaded for western blot analysis. The following primary antibodies were used for the immunoblots: α-Frizzled3 (Wang et al., 2006), α-Vangl2 (Santa Cruz), α-mCherry/DsRed (Clontech), α-Jun (Cell Signaling), α-phospho-Jun (Cell Signaling), α-JNK (Cell Signaling), α-phospho-JNK (Cell Signaling), α-Flag (Sigma), α-GAPDH (Chemicon), α-Insulin Rβ (Santa Cruz).

commissural axons = test: Axon length of electroporated dissociated commissural neurons on Wnt5a-coated coverslips; assay type: cell-based, rat
Text: Fzd3 mediates Wnt-stimulated commissural axon elongation. To directly test the function of PCP components in Wnt-mediated outgrowth of commissural axons, we electroporated DNA constructs to express PCP components in dissociated commissural neurons. The spinal cord of E11.5 mouse or E13 rat contains a ventricle into which plasmid DNA can be introduced (FIG. 28A). After injecting DNA into the central canal and electroporation, the spinal cord was dissected into an “open-book” configuration and then the dorsal spinal cord margin including the progenitor domains was dissociated as previously described ((Augsburger et al., 1999), FIG. 28A). More than 90% of the electroporated and dissociated neurons were TAG-1 immuno-reactive, confirming that they are commissural neurons (Wolf et al., 2008).
This may be due the presence of low endogenous levels of PCP components in these axons following 24 hours of culture (FIGS. 20A-20E).
Electroporated commissural culture. Electroporations of rat E13 spinal cords were completed as previously described (Wolf et al., 2008). Neurons were dissociated from these spinal preps and grown as previously described (Augsburger et al., 1999). […] The axons lengths were quantified with Zeiss LSM510 software, verified with ImageJ quantification, and the data were analyzed with an unpaired two-tailed t test for each electroporation condition.

time of Fzd3-EGFP internalization (Fzd3; high concentration (200 ng/ml), batch #1): 15 minute and two hour
time of Fzd3-EGFP internalization (Fzd3; high concentration, batch #2): 15 min and 60 min
time of Fzd3-EGFP internalization (Fzd3; low concentration (100 ng/ml), batch #1): 30 min
cell surface levels of Fzd3 (Fzd3; upon the addition of Wnt5a): reduction of cell surface levels of Fzd3
B1: Wnt5a: recombinant Wnt5a protein (R&D Systems) (protein, UniProt P41221 62-380, looked up)
Protein Wnt-5a: IIGAQPLCSQLAGLSQGQKKLCHLYQDHMQYIGEGAKTGIKECQYQFRHRRWNCSTVDNTSVFGRVMQIGSRETAFTYAVSAAGVVNAMSRACREGELSTCGCSRAARPKDLPRDWLWGGCGDNIDYGYRFAKEFVDARERERIHAKGSYESARILMNLHNNEAGRRTVYNLADVACKCHGVSGSCSLKTCWLQLADFRKVGDALKEKYDSAAAMRLNSRGKLVQVNSRFNSPTTQDLVYIDPSPDYCVRNESTGSLGTQGRLCNKTSEGMDGCELMCCGRGYDQFKTVQTERCHCKFHWCCYVKCKKCTEIVDQFVCK
increase in axon growth (commissural axons; control neurons expressing EGFP): ~15%
enhancement of axon length (commissural axons; neurons over-expressing Fzd3-EGFP, within 24 hours): ~36%
